Settings: Saccharomyces cerevisiae (strain ATCC 204508 / S288c), pH 2.1, Thermal, CD, Na2SO4-H2SO4 0.33 M
[1] = reversible: yes (>80%), structure 1YCC
[2] = reversible: yes (>70%), structure 1YCC

Chain of Cytochrome c isoform 1 F16W, P00044 (P00044 whole entry F16W, canonical isoform): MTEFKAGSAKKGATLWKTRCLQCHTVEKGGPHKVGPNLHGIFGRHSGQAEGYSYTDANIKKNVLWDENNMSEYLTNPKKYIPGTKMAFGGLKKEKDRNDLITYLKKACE
Chain of Cytochrome c isoform 1 A13Y, P00044 (P00044 whole entry A13Y, canonical isoform): as the sequence (P00044 whole entry F16W, canonical isoform) above, with A13Y, W16F counted along it
Chain of Cytochrome c isoform 1 Y103F, P00044 (P00044 whole entry Y103F, canonical isoform): as the sequence (P00044 whole entry F16W, canonical isoform) above, with W16F, Y103F counted along it
Chain of Cytochrome c isoform 1 F16Y, P00044 (P00044 whole entry F16Y, canonical isoform): as the sequence (P00044 whole entry F16W, canonical isoform) above, with W16Y counted along it
Chain of Cytochrome c isoform 1 A13L, P00044 (P00044 whole entry A13L, canonical isoform): as the sequence (P00044 whole entry F16W, canonical isoform) above, with A13L, W16F counted along it
Chain of Cytochrome c isoform 1 L100I, P00044 (P00044 whole entry L100I, canonical isoform): as the sequence (P00044 whole entry F16W, canonical isoform) above, with W16F, L100I counted along it
Chain of Cytochrome c isoform 1 wild type, P00044 (P00044 whole entry, canonical isoform): as the sequence (P00044 whole entry F16W, canonical isoform) above, with W16F counted along it

Substance	Tm [1]	change of melting temperature, mutant - wild type (higher = more stable) [1]	unfolding enthalpy (van 't Hoff) [1]	Tm [2]	change of melting temperature, mutant - wild type (higher = more stable) [2]	unfolding enthalpy (van 't Hoff) [2]	Tm (reversible: yes (>90%))	unfolding enthalpy (van 't Hoff) (reversible: yes (>90%))
Cytochrome c isoform 1 A13Y, P00044	36 °C	0.6 °C	41.5 kcal/mol					
Cytochrome c isoform 1 F16Y, P00044				28.4 °C	-7 °C	40.6 kcal/mol		
Cytochrome c isoform 1 F16W, P00044	23.1 °C	-12.3 °C	28.9 kcal/mol					
Cytochrome c isoform 1 L100I, P00044	33.7 °C	-1.7 °C	35.8 kcal/mol					
Cytochrome c isoform 1 A13L, P00044	33.7 °C	-1.7 °C	37.9 kcal/mol					
Cytochrome c isoform 1 Y103F, P00044	33.3 °C	-2.1 °C	33 kcal/mol					
Cytochrome c isoform 1 wild type, P00044							35.4 °C	38.1 kcal/mol
